Laboratory results as given in the supplement of paper PMC9170038.

Assays:
[1] = tested on: MS2 coat protein; test: apparent KD of MS2 coat protein; designed switch direction (-1 OFF switch, 1 ON switch): 1; higher = weaker reporter binding; details: Eterna round: R98
Experimental: (§1)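 RNA-MaP: designed FMN/MS2 RNA switches (84 nt design region) are transcribed on-chip within common flanks and titrated with SNAP-549-labelled MS2 coat protein (about 1-3000 nM) in 100 mM Tris pH 7.5, 80 mM KCl, 4 mM MgCl2, without or with 200 uM FMN. Median apparent KD per design; activation ratio = KD,OFF / KD,ON.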

[2] = tested on: MS2 coat protein; test: apparent KD of MS2 coat protein; higher = weaker reporter binding; details: Eterna round: R101
Experimental: as §1

Row | Sequence | apparent KD of MS2 coat protein ([1]; input ligand: FMN 200 uM) [nM] | apparent KD of MS2 coat protein ([1]; input ligand: none) [nM] | apparent KD of MS2 coat protein ([2]; input ligand: FMN 200 uM) [nM] | apparent KD of MS2 coat protein ([2]; input ligand: none) [nM]
1 | UUUACAUGAGGAUCACCCAUGUUUUGAAAGAUUGGUUUAGGUGAGGAUAUACAUGAUAAUGAAUUGUAGAAGGCACUGGGUACA [JR_SSNG3_Sub029] | 29.6 | 39.3 |  | 
2 | AAAACAUGAGGAUCACCCAUGUAAUGAUCGGUUAAUAGAAGUGAGGAUAUGCUUAAAAUAAGGUAGCAGAAGGCACUGGGUACA [JR_SSNG3_Sub041] | 31.3 | 28.1 |  | 
3 | GUAGCAUACCGAGGAUAUUCAUACCAUAAAUGGACAUGAGGAUCACCCAUGUGGCGAAAGCCUUGGGAGAAGGCGGAAUGCUAC [EliMod 3 - Jieux - Same State NG 2] | 25.2 | 673 |  | 
4 | UCACUCACGUUAGGAUAUGGAUCGGAAAACGAUCCAGAAGGAACCUGCAAACACGAGGAUCACCCGUGUUCCAAUAACGAGUGA [SameSame 5 - Jieux - Same State NG 1] | 24.7 | 20.3 |  | 
5 | GGAGACCUCACAGGAUAUGCUGGACUUUGUCCAGCAGAAGGGUGUUUAACAUGAGGAUCACCCAUGUAGGUCUCCAAAUUUAAU [Denovo 60] | 46 | 707 |  | 
6 | UCGGUUUUCGCAGGAUAUGGAGGAUACUCCCACAUGAGCAUCAGCCAUGUCUGCAUGGAGGAAGGCCAGAAGGGCGAGAACCGA [United States 2 - Jieux - Same State NG 2] | 13.5 | 31.6 |  | 
7 | CCUGACACUUGAGGAUAUGCUCAGGAAUACUGAGCAGAAGGCAGGGAAACCUGAGGAUCACCCAGGUAAGUCAGGAAUAAUAAA [Same State NG1 - A3C, U17G Submission 2A] | 21.9 | 62 |  | 
8 | UCGAAGAAGCAAGGAUAUCAAUAUUAGAAAAGAUAAACAUGAGGAUCACCCAUGUAAAUAUGGAGUGAGAAGGUGCAAUAAUUU [JR_SSNG2_Sub098] | 212 | 557 |  | 
9 | GACGAAUUCUUAGGAUAUCGAGUGGAAUACACUCGAGAAGGAAGAUAUACCUGAGGAUCACCCAGGUAAAACUGGACGUCAAUA [Same State NG1 - A3C, U17G Submission 8D A68U] | 46.7 | 193 |  | 
10 | CGCUGUCGCGCAGGAUAUGCAUUGGAUUACAAUGCAGAAGGGCGAUUACAUGAGGAUCACCCAUGUGUAGACAGUGAAGAAGAG [SameState #31 NG1] | 28.4 | 253 |  | 
11 | GGAGAUACAUGAGGAUCACCCAUGUAGGAUAUCGGGCCCGUACCCGGCGAAAGCCGGGUACGGGCCGAGAAGGGCGUACACACC [#LOL-4] (puzzle (switch architecture): Small Loop Exclusion NG 3) |  |  | 9.27 | 9.3
12 | CGCUAUUACAUGAGGAUCACCCAUGUAUACAUGGGAUUGUCGUAGGAUAUGCAGAAGAUUAAAGUGCAGAAGGACGGUAUAGCG [JR #DistanceClose #Static #StaticP #NP SSNG3 Sub068] (puzzle (switch architecture): Same State NG 3) |  |  | 1.03 | 3.46
13 | AAUAAAGAUCCUAGAGGAUCACCCUAGGAUAUGAGGCUGCACCUCGGAUAAUCCGAGGUGCAGCCUCAGAAGGAGGAAAUAAAU [#SharedSequence - SLExNG3: 5-2] (puzzle (switch architecture): Small Loop Exclusion NG 3) |  |  | 25.8 | 11.6
14 | AAGUGAAAUCAGAAGGCGUGGACGAAACGUCCACGAGGAUAUGAGGAUCACCCAUAUCAGGUCAGCCUGCAAAGCAGGCUGACC [#SharedSequence - IExNG1: 5-2] (puzzle (switch architecture): Inverted Exclusion NG 1) |  |  | 537 | 30.2
15 | AGUGUCAUCGAGAAGGCCUCAACAUGAGGAUCACCCAUUUUGAAAAGUGGGAGGAUAUCGAUGAUACAGCUACGUUUCGUAGCA [salish99_InSLSSNG1_023 #HINGE] (puzzle (switch architecture): Inverted Small Loop Same State NG 1) |  |  | 132 | 107
16 | AGACCUGCUCAGAAGGCGGAAACGAGGCUGGAAACAGCCUCGAAUUAAGAUCUUCGAGGAUCACCCGAGGAUAUGAGCAGGUCA [#SharedSequence - IExNG2: 14] (puzzle (switch architecture): Inverted Exclusion NG 2) |  |  | 593 | 60.7
17 | CCGACGCUUCAGAAGGCACUCGCAUAAUGCGAGUGAGGAUAUGAGGAUCACCCAUAUCAACGUCGGAGUCACCGAAACGGUGAC [#SharedSequence - IEx NG 2-2] (puzzle (switch architecture): Inverted Exclusion NG 1) |  |  | 14.4 | 8.54
18 | CCAGUUCUGGCAUCCUUAUUACAUGAGGAUCACCCAUGUUGUGAGGAUAUCCCAACCCACGGUCAGGAGAAGGCACAUAGAGGG [Eduscebira] (puzzle (switch architecture): Exclusion NG 3) |  |  | 5.37 | 5.89
19 | GUAGCAUACGGAGGAUAUUCAUACCGGAAACGGACAUGAGGAUCACCCAUGUGGCGAAAGCCUUGGGAGAAGGCCGUAUGCUAC [#DoubleMagnetSystem - Mat - Same State NG 2 - JL Mod - D 61] (puzzle (switch architecture): Same State NG 2) |  |  | 8.06 | 187
20 | GGAGAUACAUGAGGAUCACCCAUGUAGGAUAUCGGGCCCGUGCCCGGCGAAAGCCGGGCACGGGCCGAGAAGGGCGUACACACC [#LOL-3] (puzzle (switch architecture): Small Loop Exclusion NG 3) |  |  | 7.66 | 8.78
21 | UUGGACGUCGUAGGAUAUGUAGGAUAUUCCUACAUGAGGAUCACCCAUGUUGAAAUGGAAGAAGGACAGAAGGACGAUGUCCAU (puzzle (switch architecture): Same State NG 2) |  |  | 3.83 | 19.4
22 | AGUCGGAGCAGAGGAUAUUACAUGAGGAUCACCCAUGUAUGAACCAAUAGCUGGAAACAGCAAUGUAAGAAGGCUGCUCCGACA (puzzle (switch architecture): Exclusion NG 2) |  |  | 169 | 12.9
23 | GUAGCAGCGGCGCCCUCGUAGACAUGAGGAUCACCCAUGUCGCAGGAUAUCAGAAGCGGAGCUGCUGAGAAGGGCGACAUAAGG [Quorus] (puzzle (switch architecture): Exclusion NG 3) |  |  | 13.8 | 7.25
24 | CUGGUUGUCGUAGGAUAUGUAGGAUAUUCCUACAUGAGGAUCACCCAUGUUCGCAUGGAAGAAGGACAGAAGGACGAUGACCAC [salish99_SSNG2_013 #endbits investigation] (puzzle (switch architecture): Same State NG 2) |  |  | 9.19 | 1050
25 | GGAUAGGACAGAGGAUAUACGUGCUAGAGAUACUAGCAAAAUUUCCUCACAUGAGGAUCACCCAUGUAGAAGGCGGUCCUAUCG (puzzle (switch architecture): Exclusion NG 2) |  |  | 8.8 | 5.37
26 | GGAUAGGACAGAGGAUAUACGUGCUAGAGAUACUAGCAAAAUAUCCUCACAUGAGGAUCACCCAUGUAGAAGGCUGUCCUAUCG (puzzle (switch architecture): Exclusion NG 2) |  |  | 20.1 | 5.49
